Laboratory results as given in PMC10663500, “High-throughput analysis system of interaction kinetics for data-driven antibody design” (Scientific Reports, 2023).
Numbering of substitutions follows the chain as printed.

B1: toripalimab Fab L.S57A (Fab, V domains shown)
VH: QGQLVQSGAEVKKPGASVKVSCKASGYTFTDYEMHWVRQAPIHGLEWIGVIESETGGTAYNQKFKGRVTITADKSTSTAYMELSSLRSEDTAVYYCAREGITTVATTYYWYFDVWGQGTTVTVSS
VL: DVVMTQSPLSLPVTLGQPASISCRSSQSIVHSNGNTYLEWYLQKPGQSPQLLIYKVANRFSGVPDRFSGSGSGTDFTLKISRVEAEDVGVYYCFQGSHVPLTFGQGTKLEIK
notes: as the heavy chain of Sm3; light chain of Sm3 with this change; numbers count from the chain's first residue; source: Brevibacillus, culture supernatant (ammonium sulfate precipitate); not shown: 6xHis, C-terminal, kept; 6xHN, C-terminal, kept
B2: toripalimab Fab L.S61A (Fab, V domains shown)
VH: B1 VH
VL: B1 VL with A57S, S61A
notes: as for B1
B3: toripalimab Fab L.V99F (Fab, V domains shown)
VH: B1 VH
VL: B1 VL with A57S, V99F
notes: as for B1
B4: toripalimab Fab L.H98A (Fab, V domains shown)
VH: B1 VH
VL: B1 VL with A57S, H98A
notes: as for B1
B5: toripalimab Fab L.V99I (Fab, V domains shown)
VH: B1 VH
VL: B1 VL with A57S, V99I
notes: as for B1
B6: toripalimab Fab L.V99A (Fab, V domains shown)
VH: B1 VH
VL: B1 VL with A57S, V99A
notes: as for B1
B7: toripalimab Fab L.R59A (Fab, V domains shown)
VH: B1 VH
VL: B1 VL with A57S, R59A
notes: as for B1
B8: toripalimab Fab L.R59Y (Fab, V domains shown)
VH: B1 VH
VL: B1 VL with A57S, R59Y
notes: as for B1
B9: toripalimab Fab L.S97A (Fab, V domains shown)
VH: B1 VH
VL: B1 VL with A57S, S97A
notes: as for B1
B10: toripalimab Fab L.F94Y (Fab, V domains shown)
VH: B1 VH
VL: B1 VL with A57S, F94Y
notes: as for B1
B11: toripalimab Fab L.N58Y (Fab, V domains shown)
VH: B1 VH
VL: B1 VL with A57S, N58Y
notes: as for B1
B12: toripalimab Fab L.H98Y (Fab, V domains shown)
VH: B1 VH
VL: B1 VL with A57S, H98Y
notes: as for B1
B13: toripalimab Fab L.S61Y (Fab, V domains shown)
VH: B1 VH
VL: B1 VL with A57S, S61Y
notes: as for B1
B14: toripalimab Fab L.Q95A (Fab, V domains shown)
VH: B1 VH
VL: B1 VL with A57S, Q95A
notes: as for B1
B15: toripalimab Fab L.V99K (Fab, V domains shown)
VH: B1 VH
VL: B1 VL with A57S, V99K
notes: as for B1
B16: toripalimab Fab L.V99H (Fab, V domains shown)
VH: B1 VH
VL: B1 VL with A57S, V99H
notes: as for B1
B17: toripalimab Fab L.F60A (Fab, V domains shown)
VH: B1 VH
VL: B1 VL with A57S, F60A
notes: as for B1
B18: toripalimab Fab L.V99G (Fab, V domains shown)
VH: B1 VH
VL: B1 VL with A57S, V99G
notes: as for B1
B19: toripalimab Fab L.V99E (Fab, V domains shown)
VH: B1 VH
VL: B1 VL with A57S, V99E
notes: as for B1
B20: toripalimab Fab L.S57Y (Fab, V domains shown)
VH: B1 VH
VL: B1 VL with A57Y
notes: as for B1
B21: toripalimab Fab H.I51A (Fab, V domains shown)
VH: B1 VH with I51A
VL: B1 VL with A57S
notes: heavy chain of Sm3 with this change; numbers count from the chain's first residue; as the light chain of Sm3; source: Brevibacillus, culture supernatant (ammonium sulfate precipitate); not shown: 6xHis, C-terminal, kept; 6xHN, C-terminal, kept
B22: toripalimab Fab L.V99D (Fab, V domains shown)
VH: B1 VH
VL: B1 VL with A57S, V99D
notes: as for B1
B23: toripalimab Fab L.N58A (Fab, V domains shown)
VH: B1 VH
VL: B1 VL with A57S, N58A
notes: as for B1
B24: toripalimab Fab L.V99L (Fab, V domains shown)
VH: B1 VH
VL: B1 VL with A57S, V99L
notes: as for B1
B25: toripalimab Fab L.F94A (Fab, V domains shown)
VH: B1 VH
VL: B1 VL with A57S, F94A
notes: as for B1
B26: toripalimab Fab L.F60Y (Fab, V domains shown)
VH: B1 VH
VL: B1 VL with A57S, F60Y
notes: as for B1

biological target: T1, human programmed cell death protein 1 (hPD-1) C93S (aa 24-167) (Homo sapiens, UniProt Q15116, C93S); test: SPR; Carterra LSA; Fab from the ammonium sulfate precipitate of the culture supernatant immobilised on a NiHC200M chip; hPD-1 (1-1024 nM) or mPD-1-Fc (4-1024 nM) as analyte, fourfold dilution series, no regeneration; HBS-EP pH 7.4, 25 °C; medians over the spots of a construct, KD = koff/kon; conditions: one partner purified
T1 construct: made as a fusion with a TEV site and human Fc; the Fc was cut off with TEV protease; source: Expi293F, purified (Protein A, TEV cleavage of Fc, SEC; monomer fractions); not shown: Fc (human), C-terminal, cleaved
T1 sequence (Q15116 24-167 C93S): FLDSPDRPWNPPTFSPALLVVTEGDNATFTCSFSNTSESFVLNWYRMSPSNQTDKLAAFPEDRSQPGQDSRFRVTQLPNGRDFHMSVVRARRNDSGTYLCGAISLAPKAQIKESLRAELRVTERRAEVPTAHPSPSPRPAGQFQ
Method in brief: (§1)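 On a Carterra LSA at 25 °C, duplicate captures of Fabs were made on a NiHC200M chip; the Fabs came from Brevibacillus culture supernatants, were precipitated with ammonium sulfate and were redissolved in HBS-EP. Fourfold series of human PD-1 (1–1024 nM) or mouse PD-1-Fc (4–1024 nM) were passed over without regeneration, with 10 min association and 5 min dissociation. Binders that were not confirmed were assigned kon 10^3 […] and koff 10^−2 s^−1. The kdka model, run with slow- or fast-dissociation settings and keeping the better fit, gave the rates, and KD was taken as koff/kon from the median values for each construct.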

Binder | Kd [nM] | koff [s⁻¹] | kon [M⁻¹ s⁻¹]
B1 | < 0.698 | < 1e-05 | 14300
B2 | 1.39 | 2.72e-05 | 19600
B3 | 2.51 | 4.24e-05 | 16900
B4 | < 0.436 | < 1e-05 | 22900
B5 | < 0.7 | < 1e-05 | 14300
B6 | 1.61 | 3.6e-05 | 22300
B7 | < 0.377 | < 1e-05 | 26600
B8 | < 0.356 | < 1e-05 | 28100
B9 | 1.88 | 4.49e-05 | 23800
B10 | < 0.968 | < 1e-05 | 10300
B11 | < 1.62 | < 1e-05 | 6150
B12 | 0.737 | 1.34e-05 | 18100
B13 | < 0.5 | < 1e-05 | 20000
B14 | 2.28 | 4.22e-05 | 18500
B15 | 30.7 | 0.000131 | 4260
B16 | 23.1 | 0.000239 | 10400
B17 | < 0.669 | < 1e-05 | 14900
B18 | 1.75 | 1.44e-05 | 8230
B19 | < 1.03 | < 1e-05 | 9690
B20 | < 0.338 | < 1e-05 | 29500
B21 | 1.06 | 1.6e-05 | 15100
B22 | 1.62 | 1.8e-05 | 11100
B23 | < 1.31 | < 1e-05 | 7630
B24 | < 1.43 | < 1e-05 | 7020
B25 | < 2.46 | < 1e-05 | 4060
B26 | 0.608 | 1.12e-05 | 18400

biological target: T2, mouse programmed cell death protein 1 Fc fusion protein (mPD-1-Fc), mPD-1 C60S (aa 25-167) (Mus musculus, UniProt Q02242, stabilised); test: as above; conditions: one partner purified
T2 construct: not cleaved; source: Expi293F, purified (Protein A, SEC; dimeric fraction); not shown: Fc (human), C-terminal, kept
Method in brief: as §1

Binder | Kd [nM] | koff [s⁻¹] | kon [M⁻¹ s⁻¹]
B1 | 209 | 0.00805 | 38500
B2 | 103 | 0.00447 | 43400
B3 | 123 | 0.00104 | 8450
B4 | 120 | 0.00523 | 43600
B5 | 289 | 0.014 | 48500
B6 | 15.2 | 0.000353 | 23300
B7 | 130 | 0.00551 | 42400
B8 | 213 | 0.00916 | 43000
B9 | 678 | 0.0274 | 40400
B10 | 155 | 0.0129 | 83200
B11 | 226 | 0.00916 | 40500
B12 | 396 | 0.0148 | 37400
B13 | 103 | 0.0044 | 42500
B14 | 130 | 0.00506 | 39000
B15 | 285 | 0.00439 | 15400
B16 | 334 | 0.00991 | 29600
B17 | 182 | 0.00605 | 33300
B18 | < 0.848 | < 1e-05 | 11800
B19 | 201 | 0.00742 | 36800
B20 | 119 | 0.0054 | 45300
B21 | 630 | 0.04 | 63500
B22 | 19.8 | 0.000759 | 38300
B23 | 186 | 0.00793 | 42600
B24 | 407 | 0.00629 | 15500
B25 | 177 | 0.000967 | 5460
B26 | 133 | 0.00463 | 34800
